# B1: HDV Ribozyme (parent)
# chain: GGCCGGCAUGGUCCCAGCCUCCUCGCUGGCGCCGGCUGGGCAACAUUCCGAGGGGACCGUCCCCUCGGUAAUGGCGAAUGGGACCCA
# Variants of: B1
# Test: self-cleavage, relative activity (ratio to wild type); higher = more cleavage; co-transcriptional
row,Variant,self-cleavage
1,G11U C84A,1.12
2,G76C A78G,0.944
3,U46G G54A,0.656
4,U46G G54C,0.453
5,C3A C26G,0.415
6,U46G G52C,0.429
7,C7A C24A,0.125
8,G6U G80A,0.104
9,G11C G25C,0.0475
10,G40U A45U,0.361
11,C14A A45U,0.467
12,U20A G76A,0.135
13,C41A A45G,0.942
14,A16C C64U,1.02
15,C3A U69A,0.406
16,A71U C84G,0.481
17,G11U A16C,0.38
18,A71G U79A,0.997
19,C7G U37A,0.147
20,C21U C84U,0.0923
21,G6C C24G,0.151
22,G2C C32U,0.101
23,C19G A77C,0.111
24,C14A C19G,0

row,Variant,self-cleavage
1,G6C U47C,0.453
2,U27G U72G,0.978
3,G59U G68C,0.973
4,G2U G59U,0.128
5,C15A U79C,0.326
6,U46A G82A,0.156
7,G10A C84U,0.54
8,G1C C26G,0.227
9,U65A G67U,0.767
10,G11U C62A,0.487
11,G29C G38A,0
12,C22G G81U,0.089
13,G10C U27A,0.939
14,G53U U79A,0.509
15,G67C G73C,0.212
16,A8C G31A,0.162
17,U12A A77G,0.151
18,U12A A77U,0
19,G38A U79A,0.0831
20,G10C C26A,1.12
21,G39U A78C,0.13
22,A77G C84U,0.631
23,U20A A83U,0.0978
24,U47G G53A,1.15

row,Variant,self-cleavage
1,G1U C13A,0.321
2,G6A G50A,0.785
3,C14G A83G,0.268
4,U12G U20C,0
5,A83U,0.523
6,C13A U60A,0.214
7,G74C G80C,0.183
8,C44G A70G,0.525
9,C19G C66A,0.108
10,C19U G82U,0.0702
11,G31U C62G,0.19
12,G55U C84U,0.743
13,A8U U12G,0.594
14,A8C C44A,0.222
15,G28U C63U,0.12
16,C22U C64U,0.892
17,U12G G73C,0.489
18,G82U C84U,0.133
19,C21U C86U,0.282
20,G2U U47G,0.119
21,G1U A87C,0.408
22,U27G A45C,0.26
23,G2C C44G,0.0656
24,U37G G82U,0.0773

row,Variant,self-cleavage
1,C3U G55A,0.763
2,G81U C84U,0.228
3,C32A G76C,0.192
4,G25A A87C,0.183
5,G50A C85A,0.941
6,U37A G59A,0.237
7,G38C C58A,0.361
8,G74A C75G,0.17
9,C36A C85A,0.457
10,G6A G74A,0.0923
11,C14G A70G,0.831
12,U12A U72G,0.185
13,G31A C33U,0.359
14,C33G A71G,0.178
15,G28U G31C,0.189
16,C13A U79C,0.0692
17,C58G A71G,1.07
18,C64A A70G,0.749
19,C15G C41U,0.277
20,C30U G74C,0.113
21,U12A A45G,0.277
22,C19A C86G,0.0548
23,C14G C19G,0.0449
24,U20G G25C,0

row,Variant,self-cleavage
1,A42U A43C,0.208
2,C57U U72G,0.587
3,C24A G52A,1.1
4,C14A G35A,0.0426
5,U37G G68U,0.128
6,G6C U9C,0.391
7,C62G G74A,0.402
8,C7U G34U,0.0923
9,U23C G25A,0.101
10,G80C A87G,0.211
11,G29A C84U,0.133
12,G5A C58G,0.119
13,A8U G73C,0.0831
14,G1C A51C,0.133
15,U20G G52A,0.499
16,C21U C66U,0.299
17,C24G A51U,0.237
18,G39C A43G,0.147
19,G39A G52U,0.478
20,G34C C86G,0.19
21,C33U U69G,0.807
22,G17C C26G,0.0852
23,G2A C49G,0.135
24,G39U C41U,0.966

row,Variant,self-cleavage
1,G39C A83U,0
2,C22G A45G,0
3,U47A G73C,0.665
4,G38C G52C,0
5,G28C C84U,0.0396
6,A8U A56U,0.705
7,C7A A56G,0.399
8,U65C G76A,0.918
9,C24G U46A,0.0326
10,C49A A77G,0.458
11,U9G C26G,0.88
12,G10U C14G,0.166
13,U20A G68U,0
14,U12G C62U,0.755
15,C62U U79C,0.432
16,G39A U46A,0.0773
17,C41G C64A,0.853
18,G53A G55U,1.17
19,U23C C36A,0.172
20,C26G C57G,1.04
21,G2U G29A,0.0178
22,G34A G80U,0.0903
23,C7G G52A,0.151
24,G17U C24A,0.116

row,Variant,self-cleavage
1,U60G C85G,1.09
2,G50U U79G,0.802
3,C64U,0.995
4,G52C G54A,0.541
5,C21G C41A,0.0573
6,A8G A71C,0.447
7,G6A U20A,0.0536
8,C41A G81U,0.211
9,G29U C64A,0.0665
10,C44A G73U,0.397
11,C48A U65G,0.954
12,C4A G55C,0.31
13,G10C C24G,0
14,G6A C62U,0.728
15,G29U A51G,0.0692
16,C18G C36A,0.095
17,A8G A45C,0.332
18,C48U A70G,0.997
19,C22G G59U,0.0817
20,G25A A45G,0.332
21,U12G G81U,0.266
22,C24U U27C,0.332
23,C3A A8U,0.269
